In patent publication US20190218304A1, “POTENTIATING THE EFFECT OF ATP RELEASE” (INNATE PHARMA, priority 2017, published 2019):

Key:
[1] = test system: CD39 mutants (Table 1) expressed in Hek-293T cells; assay: Epitope mapping: flow cytometry binding to CD39 mutants in Hek-293T cells; design: species or system human
Description: CD39 mutants were generated by PCR. The sequences amplified were run on agarose gel and purified using the Macherey Nagel PCR Clean-Up Gel Extraction kit (reference 740609). The purified PCR products generated for each mutant were then ligated into an expression vector, with the ClonTech InFusion system. The vectors containing the mutated sequences were prepared as Miniprep and sequenced. After sequencing, the vectors containing the mutated sequences were prepared as Midiprep using the Promega PureYield™ Plasmid Midiprep System. HEK293T cells were grown in DMEM medium (Invitrogen), transfected with vectors using Invitrogen's Lipofectamine 2000 and incubated at 37° C. in a […] incubator for 48 hours prior to testing for transgene expression. The targeted amino acid mutations in the table 1 below are shown using numbering of SEQ ID NO: 1.
In order to define the epitopes of anti-CD39 antibodies, we designed CD39 mutants defined by substitutions of amino acids exposed at the molecular surface over the surface of CD39.
Mutant 5 contains amino acid substitutions at residues Q96, N99, E143 and R147.
Mutants were transfected in Hek-293T cells, as shown in the table 1, using numbering of SEQ ID NO: 1. […] Mutant 19 includes substitutions at residues R138, M139 and E142.
Mutants were transfected in Hek-293T cells, as shown in the table 1, using numbering of SEQ ID NO: 1. […]

[2] = target: T1, soluble recombinant human CD39 protein (Homo sapiens, UniProt P49961); assay: Inhibition of the enzymatic activity of soluble CD39 (Cell Titer Glo); assay type: biochemical; settings: result in words
T1 construct: made in house; host or cells: CHO cells
T1 sequence (P49961 with tags, fused parts or gaps): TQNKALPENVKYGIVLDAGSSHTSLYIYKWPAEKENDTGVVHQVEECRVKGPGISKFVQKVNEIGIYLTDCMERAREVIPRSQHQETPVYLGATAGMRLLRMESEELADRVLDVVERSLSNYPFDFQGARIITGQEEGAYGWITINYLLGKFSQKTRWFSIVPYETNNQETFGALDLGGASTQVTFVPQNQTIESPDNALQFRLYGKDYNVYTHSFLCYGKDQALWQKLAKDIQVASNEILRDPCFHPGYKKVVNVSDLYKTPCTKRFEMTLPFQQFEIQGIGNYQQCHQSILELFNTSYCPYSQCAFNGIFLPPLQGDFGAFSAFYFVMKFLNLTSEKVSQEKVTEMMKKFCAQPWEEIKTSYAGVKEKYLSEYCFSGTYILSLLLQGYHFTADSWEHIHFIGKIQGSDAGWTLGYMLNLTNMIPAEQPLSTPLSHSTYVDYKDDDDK
Description: The inhibition by antibodies of the enzymatic activity of soluble CD39 protein produced was evaluated using Cell Titer Glo™ (Promega, reference G7571) that allows assessment of ATP hydrolysis through use of a reagent that generates a luminescent signal proportional to the amount of ATP present. In this way, inhibition of the soluble-CD39-meidatd ATP hydrolysis can be assessed. Briefly, dose ranges of anti-CD39 antibodies from 100 μg/ml to 6×10^−3 μg/ml were incubated with 400 ng/ml of soluble recombinant human CD39 protein having the amino acid sequence described in the Methods section (SEQ ID NO: 39), for 1 h at 37° C. 20 μM ATP was added to the plates for 30 additional minutes at 37° C. before addition of CTG (Cell Titer Glo) reagent. Emitted light was quantified using an Enspire™ luminometer after a short incubation period of 5 min in the dark. Anti-CD39 antibody efficacy was determined by comparing emitted light in presence of antibody with ATP alone (maximal light emission) and ATP together with soluble CD39 protein (minimal light emission).

B1: I-399: anti-CD39 antibody, VH SEQ ID NO: 27, VL SEQ ID NO: 28 (antibody, listed as Mus musculus, V domains shown)
VH: PVQLQQPGAEVVMPGASVKLSCKASGYTFTSFWMNWMRQRPGQGLEWIGEIDPSDFYTNSNQRFKGKATLTVDKSSSTAYMQLSSLTSEDSAVYFCARGDFGWYFDVWGTGTSVTVSS
VL: EIVLTQSPTTMTSSPGEKITFTCSASSSINSNYLHWYQQKPGFSPKLLIYRTSNLASGVPTRFSGSGSGTSYSLTIGTMEAEDVATYYCQQGSSLPRTFGGGTKLEIK
- binding to cells expressing mutant 11 of CD39 ([1]; mutant 11: N371K, L372K, E375A, K376G, V377A and insertion 377V): loss of binding
- binding to the other CD39 mutants of Table 1 ([1]; remaining mutants of the 20 generated): without loss of binding to any of the other 20 mutants
- inhibition of the enzymatic (ATPase) activity of soluble CD39 protein [2]: inhibition of soluble CD39
